According to patent US20230235012A1 (ALPINE IMMUNE SCIENCES, published 2023):

T1: human ICOS, full-length, expressed on transfected Expi293 cells (human, UniProt Q9Y6W8 21-199)
T1 construct: whole, on cells
T1 sequence (looked up): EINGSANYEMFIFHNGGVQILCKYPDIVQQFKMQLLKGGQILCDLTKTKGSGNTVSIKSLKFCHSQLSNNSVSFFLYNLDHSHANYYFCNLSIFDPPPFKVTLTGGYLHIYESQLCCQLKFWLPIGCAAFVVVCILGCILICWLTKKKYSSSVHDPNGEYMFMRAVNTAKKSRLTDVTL


Tests used:
[1] = target: T1, human ICOS, full-length, expressed on …; test: flow cytometry, 100 nM, Expi293 cells with human ICOS
[2] = target: T2, human CTLA-4, full-length, expressed on transfected Expi293 cells (human, UniProt P16410 36-223); test: flow cytometry, 100 nM, Expi293 cells with human CTLA-4
T2 construct: whole, on cells
T2 sequence (P16410 36-223): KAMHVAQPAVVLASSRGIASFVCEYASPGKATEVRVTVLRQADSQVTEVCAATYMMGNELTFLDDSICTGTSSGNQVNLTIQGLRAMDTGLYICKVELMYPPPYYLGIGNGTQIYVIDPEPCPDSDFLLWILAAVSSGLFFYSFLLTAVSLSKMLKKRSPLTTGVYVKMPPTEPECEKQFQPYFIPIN

[3] = target: T3, human CD28, full-length, expressed on transfected Expi293 cells (human, UniProt P10747 19-220); test: flow cytometry, 100 nM, Expi293 cells with human CD28
T3 construct: whole, on cells

Binder	MFI [1] [MFI]	MFI ratio to WT (ΔWT) [1] [fold]	MFI [2] [MFI]	MFI ratio to WT (ΔWT) [2] [fold]	MFI [3] [MFI]	MFI ratio to WT (ΔWT) [3] [fold]
wild-type ICOSL IgV-Fc fusion (Fc fusion, also called WT ICOSL) DTQEKEVRAMVGSDVELSCACPEGSRFDLNDVYVYWQTSESKTVVTYHIPQNSSLENVDSRYRNRALMSPAGMLRGDFSLRLFNVTPQDEQKFHCLVLSQSLGFQEVLSVEVTLHVAANFSVGSGGGGSEPKSSDKTHTCPPCPAPEAEGAPSVFLFPPKPKDTLMISRTPEVTCVVVDVSHEDPEVKFNWYVDGVEVHNAKTKPREEQYNSTYRVVSVLTVLHQDWLNGKEYKCKVSNKALPAPIEKTISKAKGQPREPQVYTLPPSREEMTKNQVSLTCLVKGFYPSDIAVEWESNGQPENNYKTTPPVLDSDGSFFLYSKLTVDKSRWQQGNVFSCSVMHEALHNHYTQKSLSLSPG	212000	1	330000	1	22300	1
variant ICOSL IgV-Fc fusion N52A/N57F/Q100S (Fc fusion) DTQEKEVRAMVGSDVELSCACPEGSRFDLNDVYVYWQTSESKTVVTYHIPQASSLEFVDSRYRNRALMSPAGMLRGDFSLRLFNVTPQDEQKFHCLVLSSSLGFQEVLSVEVTLHVAANFSVGSGGGGSEPKSSDKTHTCPPCPAPEAEGAPSVFLFPPKPKDTLMISRTPEVTCVVVDVSHEDPEVKFNWYVDGVEVHNAKTKPREEQYNSTYRVVSVLTVLHQDWLNGKEYKCKVSNKALPAPIEKTISKAKGQPREPQVYTLPPSREEMTKNQVSLTCLVKGFYPSDIAVEWESNGQPENNYKTTPPVLDSDGSFFLYSKLTVDKSRWQQGNVFSCSVMHEALHNHYTQKSLSLSPG	242000	1.14	255000	0.77	157000	7
variant ICOSL IgV-Fc fusion N52A/N57Y/Q100A (Fc fusion) DTQEKEVRAMVGSDVELSCACPEGSRFDLNDVYVYWQTSESKTVVTYHIPQASSLEYVDSRYRNRALMSPAGMLRGDFSLRLFNVTPQDEQKFHCLVLSASLGFQEVLSVEVTLHVAANFSVGSGGGGSEPKSSDKTHTCPPCPAPEAEGAPSVFLFPPKPKDTLMISRTPEVTCVVVDVSHEDPEVKFNWYVDGVEVHNAKTKPREEQYNSTYRVVSVLTVLHQDWLNGKEYKCKVSNKALPAPIEKTISKAKGQPREPQVYTLPPSREEMTKNQVSLTCLVKGFYPSDIAVEWESNGQPENNYKTTPPVLDSDGSFFLYSKLTVDKSRWQQGNVFSCSVMHEALHNHYTQKSLSLSPG	261000	1.23	320000	0.97	147000	6.6
variant ICOSL IgV-Fc fusion N52C/N57E/Q100S (Fc fusion) DTQEKEVRAMVGSDVELSCACPEGSRFDLNDVYVYWQTSESKTVVTYHIPQCSSLEEVDSRYRNRALMSPAGMLRGDFSLRLFNVTPQDEQKFHCLVLSSSLGFQEVLSVEVTLHVAANFSVGSGGGGSEPKSSDKTHTCPPCPAPEAEGAPSVFLFPPKPKDTLMISRTPEVTCVVVDVSHEDPEVKFNWYVDGVEVHNAKTKPREEQYNSTYRVVSVLTVLHQDWLNGKEYKCKVSNKALPAPIEKTISKAKGQPREPQVYTLPPSREEMTKNQVSLTCLVKGFYPSDIAVEWESNGQPENNYKTTPPVLDSDGSFFLYSKLTVDKSRWQQGNVFSCSVMHEALHNHYTQKSLSLSPG	125000	0.59	10600	0.03	13400	0.6
variant ICOSL IgV-Fc fusion N52G/N57V (Fc fusion) DTQEKEVRAMVGSDVELSCACPEGSRFDLNDVYVYWQTSESKTVVTYHIPQGSSLEVVDSRYRNRALMSPAGMLRGDFSLRLFNVTPQDEQKFHCLVLSQSLGFQEVLSVEVTLHVAANFSVGSGGGGSEPKSSDKTHTCPPCPAPEAEGAPSVFLFPPKPKDTLMISRTPEVTCVVVDVSHEDPEVKFNWYVDGVEVHNAKTKPREEQYNSTYRVVSVLTVLHQDWLNGKEYKCKVSNKALPAPIEKTISKAKGQPREPQVYTLPPSREEMTKNQVSLTCLVKGFYPSDIAVEWESNGQPENNYKTTPPVLDSDGSFFLYSKLTVDKSRWQQGNVFSCSVMHEALHNHYTQKSLSLSPG	332000	1.57	52500	0.16	69100	3.1
variant ICOSL IgV-Fc fusion N52G/N57V/Q100G (Fc fusion) DTQEKEVRAMVGSDVELSCACPEGSRFDLNDVYVYWQTSESKTVVTYHIPQGSSLEVVDSRYRNRALMSPAGMLRGDFSLRLFNVTPQDEQKFHCLVLSGSLGFQEVLSVEVTLHVAANFSVGSGGGGSEPKSSDKTHTCPPCPAPEAEGAPSVFLFPPKPKDTLMISRTPEVTCVVVDVSHEDPEVKFNWYVDGVEVHNAKTKPREEQYNSTYRVVSVLTVLHQDWLNGKEYKCKVSNKALPAPIEKTISKAKGQPREPQVYTLPPSREEMTKNQVSLTCLVKGFYPSDIAVEWESNGQPENNYKTTPPVLDSDGSFFLYSKLTVDKSRWQQGNVFSCSVMHEALHNHYTQKSLSLSPG	260000	1.23	14700	0.04	23700	1.1
variant ICOSL IgV-Fc fusion N52G/Q100A (Fc fusion) DTQEKEVRAMVGSDVELSCACPEGSRFDLNDVYVYWQTSESKTVVTYHIPQGSSLENVDSRYRNRALMSPAGMLRGDFSLRLFNVTPQDEQKFHCLVLSASLGFQEVLSVEVTLHVAANFSVGSGGGGSEPKSSDKTHTCPPCPAPEAEGAPSVFLFPPKPKDTLMISRTPEVTCVVVDVSHEDPEVKFNWYVDGVEVHNAKTKPREEQYNSTYRVVSVLTVLHQDWLNGKEYKCKVSNKALPAPIEKTISKAKGQPREPQVYTLPPSREEMTKNQVSLTCLVKGFYPSDIAVEWESNGQPENNYKTTPPVLDSDGSFFLYSKLTVDKSRWQQGNVFSCSVMHEALHNHYTQKSLSLSPG	303000				98700	
variant ICOSL IgV-Fc fusion N52H/N57Y/Q100K (Fc fusion) DTQEKEVRAMVGSDVELSCACPEGSRFDLNDVYVYWQTSESKTVVTYHIPQHSSLEYVDSRYRNRALMSPAGMLRGDFSLRLFNVTPQDEQKFHCLVLSKSLGFQEVLSVEVTLHVAANFSVGSGGGGSEPKSSDKTHTCPPCPAPEAEGAPSVFLFPPKPKDTLMISRTPEVTCVVVDVSHEDPEVKFNWYVDGVEVHNAKTKPREEQYNSTYRVVSVLTVLHQDWLNGKEYKCKVSNKALPAPIEKTISKAKGQPREPQVYTLPPSREEMTKNQVSLTCLVKGFYPSDIAVEWESNGQPENNYKTTPPVLDSDGSFFLYSKLTVDKSRWQQGNVFSCSVMHEALHNHYTQKSLSLSPG	214000				142000	
variant ICOSL IgV-Fc fusion N52S/N57A/Q100A (Fc fusion) DTQEKEVRAMVGSDVELSCACPEGSRFDLNDVYVYWQTSESKTVVTYHIPQSSSLEAVDSRYRNRALMSPAGMLRGDFSLRLFNVTPQDEQKFHCLVLSASLGFQEVLSVEVTLHVAANFSVGSGGGGSEPKSSDKTHTCPPCPAPEAEGAPSVFLFPPKPKDTLMISRTPEVTCVVVDVSHEDPEVKFNWYVDGVEVHNAKTKPREEQYNSTYRVVSVLTVLHQDWLNGKEYKCKVSNKALPAPIEKTISKAKGQPREPQVYTLPPSREEMTKNQVSLTCLVKGFYPSDIAVEWESNGQPENNYKTTPPVLDSDGSFFLYSKLTVDKSRWQQGNVFSCSVMHEALHNHYTQKSLSLSPG			233000		98200	
variant ICOSL IgV-Fc fusion N52S/N57L/Q100G (Fc fusion) DTQEKEVRAMVGSDVELSCACPEGSRFDLNDVYVYWQTSESKTVVTYHIPQSSSLELVDSRYRNRALMSPAGMLRGDFSLRLFNVTPQDEQKFHCLVLSGSLGFQEVLSVEVTLHVAANFSVGSGGGGSEPKSSDKTHTCPPCPAPEAEGAPSVFLFPPKPKDTLMISRTPEVTCVVVDVSHEDPEVKFNWYVDGVEVHNAKTKPREEQYNSTYRVVSVLTVLHQDWLNGKEYKCKVSNKALPAPIEKTISKAKGQPREPQVYTLPPSREEMTKNQVSLTCLVKGFYPSDIAVEWESNGQPENNYKTTPPVLDSDGSFFLYSKLTVDKSRWQQGNVFSCSVMHEALHNHYTQKSLSLSPG			79400		71900	
variant ICOSL IgV-Fc fusion N52T/N57K/Q100P (Fc fusion) DTQEKEVRAMVGSDVELSCACPEGSRFDLNDVYVYWQTSESKTVVTYHIPQTSSLEKVDSRYRNRALMSPAGMLRGDFSLRLFNVTPQDEQKFHCLVLSPSLGFQEVLSVEVTLHVAANFSVGSGGGGSEPKSSDKTHTCPPCPAPEAEGAPSVFLFPPKPKDTLMISRTPEVTCVVVDVSHEDPEVKFNWYVDGVEVHNAKTKPREEQYNSTYRVVSVLTVLHQDWLNGKEYKCKVSNKALPAPIEKTISKAKGQPREPQVYTLPPSREEMTKNQVSLTCLVKGFYPSDIAVEWESNGQPENNYKTTPPVLDSDGSFFLYSKLTVDKSRWQQGNVFSCSVMHEALHNHYTQKSLSLSPG			78300		88700	
variant ICOSL IgV-Fc fusion N52T/N57Y/Q100A (Fc fusion) DTQEKEVRAMVGSDVELSCACPEGSRFDLNDVYVYWQTSESKTVVTYHIPQTSSLEYVDSRYRNRALMSPAGMLRGDFSLRLFNVTPQDEQKFHCLVLSASLGFQEVLSVEVTLHVAANFSVGSGGGGSEPKSSDKTHTCPPCPAPEAEGAPSVFLFPPKPKDTLMISRTPEVTCVVVDVSHEDPEVKFNWYVDGVEVHNAKTKPREEQYNSTYRVVSVLTVLHQDWLNGKEYKCKVSNKALPAPIEKTISKAKGQPREPQVYTLPPSREEMTKNQVSLTCLVKGFYPSDIAVEWESNGQPENNYKTTPPVLDSDGSFFLYSKLTVDKSRWQQGNVFSCSVMHEALHNHYTQKSLSLSPG			341000		161000	
variant ICOSL IgV-Fc fusion N52V/N57L/Q100A (Fc fusion) DTQEKEVRAMVGSDVELSCACPEGSRFDLNDVYVYWQTSESKTVVTYHIPQVSSLELVDSRYRNRALMSPAGMLRGDFSLRLFNVTPQDEQKFHCLVLSASLGFQEVLSVEVTLHVAANFSVGSGGGGSEPKSSDKTHTCPPCPAPEAEGAPSVFLFPPKPKDTLMISRTPEVTCVVVDVSHEDPEVKFNWYVDGVEVHNAKTKPREEQYNSTYRVVSVLTVLHQDWLNGKEYKCKVSNKALPAPIEKTISKAKGQPREPQVYTLPPSREEMTKNQVSLTCLVKGFYPSDIAVEWESNGQPENNYKTTPPVLDSDGSFFLYSKLTVDKSRWQQGNVFSCSVMHEALHNHYTQKSLSLSPG			252000		132000	
